Laboratory results as given in patent US6124125A, “AMP activated protein kinase” (Trustees of Dartmouth College, priority 1996, dated 2000).
Several values for one entry are separate records, joined by “and”; a condition that tells them apart may be missing. Equal values may be shown once. One block for each molecule: values may come before it. Where no end group is shown, it is not given here.

Legend:
[1] = system: AMPK; assay: AMPK protein kinase assay: phosphorylation of synthetic peptide substrates by partially purified enzyme (DE-52 step); assay type: biochemical, porcine; settings: for rate of phosphorylation relative to the SAMS peptide: partially purified enzyme (purified to the DE-52 step), % of the rate of the SAMS peptide; for Km: peptide as substrate of AMPK, read-out: apparent Km as substrate for the AMPK
Excerpt: A series of synthetic peptides including analogues of proteins […] to be substrates for the AMPK were screened with partially purified enzyme (purified to the DE-52 step). These included the myosin light chains, ADR1, glycogen synthase and phospholemman. The phospholemman peptides tested were poor substrates and not investigated further. The glycogen synthase peptide, PLSRTLSVAAKK (SEQ ID NO: 46) was phosphorylated in an AMP-dependent manner at approximately 40% of the rate of the SAMS peptide, however, this peptide is an excellent substrate for a number of protein kinases, including protein kinase C and calmodulin dependent protein kinase II (Kemp, B. E. and Pearson, R. B. (1991) in Protein Phosphorylation, Hunter, T and Sefton, B. M. (eds) Methods in Enzymology, 200, 121-134). The myosin light chain peptides tested were phosphorylated with rates approximately 15% of the SAMS peptide.
The AMPK was assayed in accordance with procedures described by Davies et al. (1989) Eur. J. Biochem. 186, 123-128 using the SAMS peptide substrate, HMRSAMSGLHLVKRR-amide (SEQ ID NO: 49). The enzyme was diluted in diluting buffer (20 mM HEPES pH 7.0, 0.1% (v/v) Triton X-100) prior to assay and the reactions were initiated by adding […] diluted enzyme to the reaction mixture containing peptide substrate. The reactions were stopped by withdrawing […] aliquots and applying to P81 papers in accordance with procedures described by Pearson, R. B., Mitchelhill, K. I., and Kemp, B. E. (1993) in Protein Phosphorylation: A Practical Approach, Hardie, G. D. (ed) Oxford University Press, pp 265-291.

[2] = target: ADR1(225-234) peptide (Saccharomyces cerevisiae (strain ATCC 204508 / S288c) (Baker's yeast)) (UniProt P07248)
[3] = target: ADR1(222-234)P229 peptide
[4] = target: SAMS peptide
[5] = target: glycogen synthase peptide
[6] = target: myosin light chain peptides
[7] = target: SAMS peptide; settings: scale: % of the SAMS peptide phosphotransferase activity of rat liver
[8] = system: AMPK α2; assay type: biochemical, rat; settings: alpha2 immune precipitates
[9] = system: AMPK α1; assay type: biochemical, rat; settings: alpha1 immune precipitates, 200 µM
[10] = target: acetyl CoA carboxylase
[11] = target: SAMS peptide; remark: listed apart in the source

rate of phosphorylation relative to the SAMS peptide [1]: approximately 40%
Molecule: PLSRTLSVAAKK [glycogen synthase peptide]

rate of phosphorylation (% of the SAMS peptide) [2]: 50
apparent Km of phosphorylation [3]: 3 µM
apparent Km of phosphorylation [4]: 33 µM
rate of phosphorylation (% of the rate of the SAMS peptide) [5]: 40
rate of phosphorylation (% of the SAMS peptide) [6]: 15
Molecule: AMPK, partially purified enzyme (purified to the DE-52 step)

Km [1]: 33 µM
Molecule: HMRSAMSGLHLVKRR-amide (HMRSAMSGLHLVKRR-NH2) [SAMS peptide]

SAMS peptide phosphotransferase activity [7]: > 94
Molecule: AMPK α1 isoform holoenzyme purified from liver by peptide substrate affinity chromatography (63 kDa catalytic subunit, 40 kDa and 38 kDa subunits) (from UniProt P54645)

activation by 5'-AMP [8]: 3-4 fold
activation by 5'-AMP [9]: 2-3 fold
Molecule: Nc1ncnc2c1ncn2[C@@H]1O[C@H](COP(=O)(O)O)[C@@H](O)[C@H]1O [5'-AMP]

rate of phosphorylation relative to the SAMS peptide [1]: approximately 50%
Km [1]: ~3 µM and 3 µM
Molecule: LKKLTLRASFSAQ (not fully specified) [ADR1(222-234)^P229]

rate of phosphorylation relative to the SAMS peptide [1]: approximately 50%
Molecule: ADR1(225-234): synthetic ADR1 peptide screened as AMPK substrate (LTRRASFSAQ)

apparent specific activity [10]: > 20 fold lower
apparent specific activity [11]: > 20 fold lower
Molecule: AMPK α2 isoenzyme of rat liver (α2 with β and γ subunits), from the unbound fraction of the peptide substrate affinity column (from UniProt Q09137)
